{"source": "paper PMC5823975", "about": "“Ubiquitin-Mediated Regulation of RIPK1 Kinase Activity Independent of IKK and MK2” (Molecular Cell, 2018)", "molecules": {"B1": {"name": "cIAP2 segment with the BIR1 in conjunction with the UBA domain (domain or fragment)", "chain": "LSCELYRMSTYSTFPAGVPVSERSLARAGFYYTGVNDKVKCFCCGLMLDNWKRGDSPTEKHKKLYPSCRFVQSLNSVNNLEATSQPTFPSSVTNSTHSLLPGTENSGYFRGSYSNSPSNPVNSRANQDFSALMRSSYHCAMNNENARLLTFQTWPLTFLSPTDLAKAGFYYIGPGDRVACFACGGKLSNWEPKDNAMSEHLRHFPKCPFIENQLQDTSRYTVSNLSMQTHAARFKTFFNWPSSVLVNPEQLASAGFYYVGNSDDVKCFCCDGGLRCWESGDDPWVQHAKWFPRCEYLIRIKGQEFIRQVQASYPHLLEQLLSTSDSPGDENAESSIIHFEPGEDHSEDAIMMNTPVINAAVEMGFSRSLVKQTVQRKILATGENYRLVNDLVLDLLNAEDEIREEERERAT", "modifications": "Zn2+ bound by the BIR domains"}}, "key": {"[1]": {"target": "T1, TRAF2 segment (recombinant, ITC) (human, UniProt Q12933 1-501)", "T1 construct": "human TRAF2 segment; it compares with Zheng et al. (2010); source: E. coli BL21 (DE3), purified (Ni-Sepharose, HiTrap Q, Superdex 200); not shown: His-SUMO, N-terminal, cleaved", "T1 sequence (looked up)": "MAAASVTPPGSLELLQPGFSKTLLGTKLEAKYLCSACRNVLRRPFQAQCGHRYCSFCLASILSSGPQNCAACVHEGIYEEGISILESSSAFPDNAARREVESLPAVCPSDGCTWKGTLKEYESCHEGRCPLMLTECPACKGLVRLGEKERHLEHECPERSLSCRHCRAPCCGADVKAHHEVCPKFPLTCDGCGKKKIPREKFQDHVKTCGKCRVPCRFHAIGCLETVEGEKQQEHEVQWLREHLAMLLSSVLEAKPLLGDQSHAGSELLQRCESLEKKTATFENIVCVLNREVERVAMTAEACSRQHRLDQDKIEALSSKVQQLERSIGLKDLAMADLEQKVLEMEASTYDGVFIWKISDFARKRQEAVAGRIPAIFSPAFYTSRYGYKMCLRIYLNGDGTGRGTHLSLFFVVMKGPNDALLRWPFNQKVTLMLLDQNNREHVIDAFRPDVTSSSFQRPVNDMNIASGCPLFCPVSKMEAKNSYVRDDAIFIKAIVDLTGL", "test": "ITC; cIAP2 protein (2-4 mM) injected into 0.20 mM TRAF2; 16°C; 25 mM Tris-HCl pH 8.0, 150 mM NaCl; MicroCal ITC200"}, "[2]": {"target": "cIAP2 BIR1 (Homo sapiens) (UniProt Q13489)", "conditions": "cited from earlier work"}}, "note": "Read-outs that look alike come from different tables or passages of the source."}
{"molecule": "UBA domain of cIAP2 (from UniProt Q13489 372-425) (domain or fragment)", "values": [{"measurement": "Kd", "setting": "[1]", "result": 480000, "unit": "nM"}]}
{"molecule": "TRAF2 (from UniProt Q12933)", "values": [{"measurement": "Kd", "setting": "[2]", "result": 1700, "unit": "nM"}]}
{"molecule": "B1", "values": [{"measurement": "Kd", "setting": "[1]; both partners purified", "result": 430, "unit": "nM"}]}
